The series concerns the target T1, Clp (Xanthomonas campestris pv. campestris 8004) (UniProt Q4UZF6).
T1 sequence: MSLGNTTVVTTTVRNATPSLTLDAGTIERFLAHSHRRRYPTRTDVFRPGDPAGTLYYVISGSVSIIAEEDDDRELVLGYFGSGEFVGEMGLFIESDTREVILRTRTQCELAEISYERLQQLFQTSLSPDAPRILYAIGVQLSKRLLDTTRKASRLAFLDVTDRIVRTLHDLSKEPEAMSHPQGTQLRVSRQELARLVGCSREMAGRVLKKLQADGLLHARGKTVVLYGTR
The series can be described thus: EMSA. (In general: A gel shift assay detects complexes by their altered migration in electrophoresis.)

Take “AGCTGAAGGCCGGCCCGGCGGCCAGTGCGAGGGCGGTGGCCAAAGCGAGCGTGCTTGCGGTCCTGAATATGGACATGGTGATCTCCCTAGAGAACCGGGCTCGACACCCGAGCGCGGTAAGGCGGGCATCTTGGTCTGTGCGCGCGTCGCGTGGTG (double strand) [P-36/+120 (text: P-36/+100)]”: the binding result is reported as “no binding”.
Next, “CATGGTGATCTCCCTAGAGAACCGGGCTCGACACCCGAGCGCGGTAAGGCGGGCATCTTGGTCTGTGCGCGCGTCGCGTGGTGTGATCGTCCCCACAGAAAAC (double strand) [P-56/+47]”: “binds”.

Values taken from paper PMC6430473.
